Values belong to the binder of their own block, whether it stands above or below them.
Key:
[1] = molecular target: T1, BDG17.038 complexed with hIL-2 (human, UniProt P60568 21-153); assay: SPR, captured BDG17.038 loaded with 50 nM hIL-2, CD25 injected before CD122
T1 construct: Humanized IgG1 captured on the SPR chip and saturated with 50 nM hIL-2; also called BDG17.038/hIL-2
Description: (§1) FIGS. 17A-17B. Present receptor discrimination of indicated antibody/IL-2 complex by tracing of SPR response. Antibody was immobilized to the CM5 chip, and hIL-2, CD122, and CD25 were streamed as indicated with an arrow. FIG. 17A presents a schematic order of injection of compounds to SPR chip, that represents sequential anti-IL-2 antibodies complexed with human IL-2 (hIL2), binding to CD122 but not to CD25.

[2] = molecular target: T2, BDG17.043 complexed with hIL-2 (human, UniProt P60568 21-153); assay: SPR, captured BDG17.043 loaded with 50 nM hIL-2, CD25 injected before CD122
T2 construct: Humanized IgG1 captured on the SPR chip and saturated with 50 nM hIL-2; also called BDG17.043/hIL-2
T2 sequence (VH, as listed by the source limits assumed, chain 1 of 3): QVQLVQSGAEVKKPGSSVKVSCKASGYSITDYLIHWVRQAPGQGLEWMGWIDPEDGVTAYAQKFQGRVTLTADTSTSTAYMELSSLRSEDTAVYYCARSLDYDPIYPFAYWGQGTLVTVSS
T2 sequence (VL, as listed by the source limits assumed, chain 2 of 3): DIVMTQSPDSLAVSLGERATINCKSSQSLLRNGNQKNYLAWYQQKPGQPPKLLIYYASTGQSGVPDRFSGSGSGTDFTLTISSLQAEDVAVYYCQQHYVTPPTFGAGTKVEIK
T2 sequence (P60568 21-153 limits assumed, chain 3 of 3): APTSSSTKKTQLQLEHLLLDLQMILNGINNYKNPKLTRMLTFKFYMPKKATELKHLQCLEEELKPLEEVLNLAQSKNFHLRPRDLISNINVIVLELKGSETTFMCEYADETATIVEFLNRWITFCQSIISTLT
Description: as §1

BDG17.023-hIL-2 complex = molecular target: T3, BDG17.023-hIL-2 complex (human, UniProt P60568 21-153); assay: SPR, BDG17.023 on the CM5 chip loaded with 50 nM hIL-2, CD122 then CD25 1000 nM
T3 construct: BDG17.023 (human IgG1 chimera) on the SPR chip saturated with 50 nM hIL-2; also called BDG17.023-IL-2 complex; Ab-IL-2 complex
T3 sequence (P60568 21-153 limits assumed, one chain of several): as the sequence (P60568 21-153 limits assumed, chain 3 of 3) above
Procedure: To test specific binding to CD25, BDG17.023 was immobilized to the CM5 chip to a target RU of approximately 300 RU as described above. Subsequently, 50 nM IL-2 was injected till the BDG17.023 or control antibody were saturated. Then the Ab-IL-2 complex was washed with PBS-T buffer for 10 sec and 1000 nM of CD25 was injected and monitored for response.
To test specific binding to CD122, BDG17.023 was immobilized to the CM5 chip to a target RU of approximately 300 RU-500 RU as described above. Subsequently, 50 nM hIL-2 was injected till the BDG17.023 antibody was saturated with hIL-2. Next the Ab-IL-2 complex was washed with PBS-T buffer for 10 sec and 1000 nM of CD122 was injected and response was monitored.

[3] = molecular target: T4, BDG17.053 complexed with hIL-2 (human, UniProt P60568 21-153); assay: SPR, captured antibody saturated with 50 nM hIL-2, then CD25 and CD122 injected in both orders
T4 construct: Humanized IgG1 captured on the SPR chip and saturated with 50 nM hIL-2
T4 sequence (VH, as listed by the source limits assumed, chain 1 of 3): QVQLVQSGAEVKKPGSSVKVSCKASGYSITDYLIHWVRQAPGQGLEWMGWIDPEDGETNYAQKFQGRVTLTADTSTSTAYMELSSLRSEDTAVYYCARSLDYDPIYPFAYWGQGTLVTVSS
T4 sequence (VL, as listed by the source limits assumed, chain 2 of 3): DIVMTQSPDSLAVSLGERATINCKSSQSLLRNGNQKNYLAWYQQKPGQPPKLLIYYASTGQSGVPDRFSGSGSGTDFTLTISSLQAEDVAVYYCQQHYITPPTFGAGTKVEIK
T4 sequence (P60568 21-153 limits assumed, chain 3 of 3): as the sequence (P60568 21-153 limits assumed, chain 3 of 3) above
Procedure: (§2) To test specific binding of the humanized antibodies IL-2 complex to CD122 and CD25, antibodies BDG17.038, BDG17.043, BDG17.053, BDG17.054, BDG17.067, BDG17.069 (See, Tables 6 and 7 of Example 2 for sequence information for these clones) were immobilized to an a capture antibody attached to CM5 chip channel to a target RU of approximately 300 RU as described above. Subsequently, 50 nM IL-2 was injected till the respective antibody was saturated with hIL-2. Then the Ab-IL-2 complex was washed with PBS-T buffer for 60 sec and 1000 nM of CD25 was injected and monitored for response. Subsequently, running buffer was injected for 60 seconds to reach a steady baseline, and then 1000 nM of CD122 was injected for 30 seconds in a flow rate of 30 ul/min. To test CD122 binding, the same experiment was repeated in reverse order, with CD122 injected first flowed by injection of CD25.

[4] = molecular target: T5, BDG17.066 complexed with hIL-2 (human, UniProt P60568 21-153); assay: SPR, captured BDG17.066 loaded with hIL-2, CD25 injected before CD122 and again after CD122
T5 construct: Humanized IgG1 LALA on the SPR chip saturated with hIL-2
T5 sequence (heavy, as listed by the source limits assumed, chain 1 of 3): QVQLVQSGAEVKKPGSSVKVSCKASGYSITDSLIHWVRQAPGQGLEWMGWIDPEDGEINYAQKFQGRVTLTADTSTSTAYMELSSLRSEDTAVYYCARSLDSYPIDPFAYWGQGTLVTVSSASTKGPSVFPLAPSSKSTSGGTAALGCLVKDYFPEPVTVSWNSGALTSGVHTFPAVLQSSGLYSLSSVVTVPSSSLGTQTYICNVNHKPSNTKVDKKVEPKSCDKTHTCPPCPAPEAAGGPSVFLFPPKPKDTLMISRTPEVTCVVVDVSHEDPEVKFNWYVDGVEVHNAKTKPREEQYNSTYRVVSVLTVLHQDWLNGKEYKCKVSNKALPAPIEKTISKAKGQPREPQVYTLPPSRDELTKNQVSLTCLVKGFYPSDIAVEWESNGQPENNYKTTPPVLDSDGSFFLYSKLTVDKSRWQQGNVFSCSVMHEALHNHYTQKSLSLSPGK
T5 sequence (light, as listed by the source limits assumed, chain 2 of 3): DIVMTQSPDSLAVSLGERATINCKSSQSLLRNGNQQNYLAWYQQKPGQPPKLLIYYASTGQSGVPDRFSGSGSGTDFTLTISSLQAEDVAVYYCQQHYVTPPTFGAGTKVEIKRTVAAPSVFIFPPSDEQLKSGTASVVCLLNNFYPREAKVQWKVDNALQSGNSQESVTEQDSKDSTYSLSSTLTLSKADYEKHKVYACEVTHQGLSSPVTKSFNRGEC
T5 sequence (P60568 21-153 limits assumed, chain 3 of 3): as the sequence (P60568 21-153 limits assumed, chain 3 of 3) above
Description: as §1

[5] = molecular target: T6, BDG17.067 complexed with hIL-2 (human, UniProt P60568 21-153); assay: SPR, captured BDG17.067 loaded with hIL-2, CD25 injected before CD122 and again after CD122
T6 construct: Humanized IgG1 LALA captured on the SPR chip and saturated with 50 nM hIL-2; also called BDG17.0067 complexed with hIL-2
T6 sequence (heavy, as listed by the source limits assumed, chain 1 of 3): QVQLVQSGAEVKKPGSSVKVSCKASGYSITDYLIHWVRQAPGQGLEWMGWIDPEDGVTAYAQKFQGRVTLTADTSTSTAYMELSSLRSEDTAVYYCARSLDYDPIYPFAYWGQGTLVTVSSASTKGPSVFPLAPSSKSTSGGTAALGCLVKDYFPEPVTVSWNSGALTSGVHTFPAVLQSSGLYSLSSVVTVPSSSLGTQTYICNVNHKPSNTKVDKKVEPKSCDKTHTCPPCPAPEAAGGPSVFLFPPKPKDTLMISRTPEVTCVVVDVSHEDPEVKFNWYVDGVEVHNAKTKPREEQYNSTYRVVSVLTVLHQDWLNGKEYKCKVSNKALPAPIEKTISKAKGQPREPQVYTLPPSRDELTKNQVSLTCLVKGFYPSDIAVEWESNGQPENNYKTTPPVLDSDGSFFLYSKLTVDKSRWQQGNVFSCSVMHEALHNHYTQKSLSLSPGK
T6 sequence (light, as listed by the source limits assumed, chain 2 of 3): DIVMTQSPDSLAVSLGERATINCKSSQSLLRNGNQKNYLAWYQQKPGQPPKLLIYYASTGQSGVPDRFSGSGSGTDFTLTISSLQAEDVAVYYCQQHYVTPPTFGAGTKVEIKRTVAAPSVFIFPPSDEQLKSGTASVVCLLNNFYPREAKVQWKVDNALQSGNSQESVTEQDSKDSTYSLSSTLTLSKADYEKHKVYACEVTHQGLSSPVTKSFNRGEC
T6 sequence (P60568 21-153 limits assumed, chain 3 of 3): as the sequence (P60568 21-153 limits assumed, chain 3 of 3) above
Description: as §1, §2

[6] = molecular target: T7, BDG17.069 complexed with hIL-2 (human, UniProt P60568 21-153); assay: SPR, captured BDG17.069 loaded with hIL-2, CD25 injected before CD122 and again after CD122
T7 construct: Humanized IgG1 LALA captured on the SPR chip and saturated with 50 nM hIL-2
T7 sequence (heavy, as listed by the source limits assumed, chain 1 of 3): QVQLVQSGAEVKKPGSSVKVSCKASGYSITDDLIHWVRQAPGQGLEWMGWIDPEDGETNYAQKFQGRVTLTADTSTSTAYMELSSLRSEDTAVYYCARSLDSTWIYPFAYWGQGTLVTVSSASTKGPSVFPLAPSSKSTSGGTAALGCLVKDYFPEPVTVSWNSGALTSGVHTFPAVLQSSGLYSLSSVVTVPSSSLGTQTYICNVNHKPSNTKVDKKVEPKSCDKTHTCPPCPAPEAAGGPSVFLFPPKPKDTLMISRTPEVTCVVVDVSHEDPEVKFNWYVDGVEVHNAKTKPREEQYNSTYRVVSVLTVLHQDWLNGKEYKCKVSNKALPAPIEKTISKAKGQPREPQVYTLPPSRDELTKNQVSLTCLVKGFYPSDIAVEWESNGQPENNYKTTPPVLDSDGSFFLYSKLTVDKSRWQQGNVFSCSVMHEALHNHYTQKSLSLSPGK
T7 sequence (light, as listed by the source limits assumed, chain 2 of 3): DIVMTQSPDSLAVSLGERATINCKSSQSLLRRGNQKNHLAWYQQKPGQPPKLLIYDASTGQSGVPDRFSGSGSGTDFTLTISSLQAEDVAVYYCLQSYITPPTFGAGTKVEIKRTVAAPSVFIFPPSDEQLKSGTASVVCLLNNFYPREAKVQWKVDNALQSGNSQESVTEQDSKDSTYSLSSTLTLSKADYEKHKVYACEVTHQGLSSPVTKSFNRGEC
T7 sequence (P60568 21-153 limits assumed, chain 3 of 3): as the sequence (P60568 21-153 limits assumed, chain 3 of 3) above
Description: as §1

[7] = molecular target: T8, BDG17.054 complexed with hIL-2 (human, UniProt P60568 21-153); assay: SPR, captured BDG17.054 loaded with 50 nM hIL-2, CD25 injected before CD122 and again after CD122
T8 construct: Humanized IgG1 captured on the SPR chip and saturated with 50 nM hIL-2; also called BDG17.054/hIL-2
T8 sequence (VH, as listed by the source limits assumed, chain 1 of 3): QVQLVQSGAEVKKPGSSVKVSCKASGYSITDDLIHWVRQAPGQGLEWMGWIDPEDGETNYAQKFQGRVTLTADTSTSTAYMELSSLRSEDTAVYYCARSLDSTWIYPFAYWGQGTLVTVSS
T8 sequence (VL, as listed by the source limits assumed, chain 2 of 3): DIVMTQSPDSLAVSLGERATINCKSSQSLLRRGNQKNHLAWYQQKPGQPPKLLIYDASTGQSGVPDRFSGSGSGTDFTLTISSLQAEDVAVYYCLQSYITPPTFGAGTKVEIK
T8 sequence (P60568 21-153 limits assumed, chain 3 of 3): as the sequence (P60568 21-153 limits assumed, chain 3 of 3) above
Description: as §1, §2

human IL-2 [8] = molecular target: T9, human IL-2 (human, UniProt P60568 21-153); assay: yeast surface display flow cytometry, 0.1 nM hIL-2, MFI normalized to expression
T9 construct: SPR used Reprokine human IL-2; the result sentences say only hIL-2 or labeled human IL-2, so the same molecule is used here; also called hIL-2; recombinant human IL-2
T9 sequence (P60568 21-153 limits assumed): as the sequence (P60568 21-153 limits assumed, chain 3 of 3) above

human IL-2 [9] = molecular target: T9, human IL-2; assay: yeast surface display, selection against human IL-2

T1 sequence (VH, as listed by the source limits assumed, chain 1 of 3): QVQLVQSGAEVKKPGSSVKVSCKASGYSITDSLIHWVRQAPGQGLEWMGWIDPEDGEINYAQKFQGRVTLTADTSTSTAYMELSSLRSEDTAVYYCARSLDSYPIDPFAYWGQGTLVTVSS
T1 sequence (VL, as listed by the source limits assumed, chain 2 of 3): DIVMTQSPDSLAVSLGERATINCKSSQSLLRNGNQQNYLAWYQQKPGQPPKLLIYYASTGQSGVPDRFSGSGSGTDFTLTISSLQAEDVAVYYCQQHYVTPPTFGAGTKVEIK
T1 sequence (P60568 21-153 limits assumed, chain 3 of 3): as the sequence (P60568 21-153 limits assumed, chain 3 of 3) above

B2: clone 2 (17.022) scFv, yeast surface display clone (scFv)
scFv: EIQLQQSGPELRRPGSSVKLSCKASGYNITDYLIHWVRHRPEHGLEWIGWIDPEDGETRYAQKFQSKATLTADTSSNAAYMQLSSLTPEDTATYFCARSLDSTWIYPFAYWGQGTLVTVSSGGGGSGGGGSGGGGSDIVMTQSPFSLAVSEGEMVTINCKSSQSLLRSGNQKNYLAWYQQKPGQSPKLLIYYASTGQSGVPDRFIGSGSGTDFTLTISDVQAEDLADYYCLQHYITPPTFGAGTKLELK
binding result (human IL-2 [8]): binds

B3: clone 5 (17.030) scFv, yeast surface display clone (scFv)
scFv: EIQLQQSGPELRRPGSSVKLSCKASGYNITDYLIHWVRHRPEHGLEWIGWIDPEDGETRYAQKFQSKATLTADTSSNAAYMQLSSLTPEDTATYFCARSLDSTYDYPFAYWGQGTLVTVSSGGGGSGGGGSGGGGSDIVMTQSPFSLAVSEGEMVTINCKSSQSLLRSGNQKNYLAWYQQKPGQSPKLLIYYASTGQSGVPDRFIGSGSGTDFTLTISDVQAEDLADYYCLQHYISPPTFGAGTKLELK
binding result (human IL-2 [8]): binds

B6: clone 1 (17.021) scFv, yeast surface display clone (scFv)
scFv: EIQLQQSGPELRRPGSSVKLSCKASGYNITDNLIHWVRHRPEHGLEWIGWIDPEDGETRYAQKFQSKATLTADTSSNAAYMQLSSLTPEDTATYFCARSLDSTYIYPFAYWGQGTLVTVSSGGGGSGGGGSGGGGSDIVMTQSPFSLAVSEGEMVTINCKSSQSLLRSGNQKNYLAWYQQKPGQSPKLLIYYASTGQSGVPDRFIGSGSGTDFTLTISDVQAEDLADYYCLQHYQSPPTFGAGTKLELK
binding result (human IL-2 [8]): binds

Other lines, results leading:

binding result [1]: no binding (tested: 1000 nM)
binding result [2]: no binding
binding result (BDG17.023-hIL-2 complex): no binding (tested: 1000 nM)
binding result [3]: no binding (tested: 1000 nM CD25)
binding result [4]: no binding
binding result [5]: no binding
binding result [6]: no binding
binding result [7]: no binding (tested: 1000 nM)
B1: human CD25 (receptor, UniProt P01589 22-240, looked up)
chain: ELCDDDPPEIPHATFKAMAYKEGTMLNCECKRGFRRIKSGSLYMLCTGNSSHSSWDNQCQCTSSATRNTTKQVTPQPEEQKERKTTEMQSPMQPVDQASLPGHCREPPPWENEATERIYHFVVGQMVYYQCVQGYRALHRGPAESVCKMTHGKTRWTQPQLICTGEMETSQFPGEEKPQASPEGRPESETSCLVTTTDFQIQTEMAATMETSIFTTEYQ
notes: also called IL-2R alpha

binding result (human IL-2 [9]): binds
B4: clone C #7 (173R5C1-17.002) (scFv)
scFv: EIQLQQSGPELRRPGSSVKLSCKASGYNITDYLIHWVRHRPEHGLEWIGWIDPEDGETRYAQKFQSKATLTADTSSNAAYMQLSSLTPEDTATYFCARSLDSTPIYPFAYWGQGTLVTVSSGGGGSGGGGSGGGGSDIVMTQSPFSLAVSEGEMVTINCKSSQSLLRSGNQKNYLAWYQQKPGQSPKLLIYYASTGQSGVPDRFIGSGSGTDFTLTISDVQAEDLADYYCLQHYITPPTFGAGTKLELK
notes: Yeast surface display clone from the JES6.1 scFv library

binding result (human IL-2 [8]): binds
B5: clone 4 (17.023) scFv, yeast surface display clone (scFv)
scFv: EIQLQQSGPELRRPGSSVKLSCKASGYNITDYLIHWVRHRPEHGLEWIGWIDPEDGETRYAQKFQSKATLTADTSSNAAYMQLSSLTPEDTATYFCARQLDSTYIYPFAYWGQGTLVTVSSGGGGSGGGGSGGGGSDIVMTQSPFSLAVSEGEMVTINCKSSQSLLRSGNQKNYLAWYQQKPGQSPKLLIYYASTGQSGVPDRFIGSGSGTDFTLTISDVQAEDLADYYCLQHYITPPTFGAGTKLELK

binding result (human IL-2 [8]): binds
B7: clone 6 (17.035) scFv, yeast surface display clone (scFv)
scFv: EIQLQQSGPELRRPGSSVKLSCKASGYNITDYLIHWVRHRPEHGLEWIGWIDPEDGETRYAQKFQSKATLTADTSSNAAYMQLSSLTPEDTATYFCARSLDSTYNYPFAYWGQGTLVTVSSGGGGSGGGGSGGGGSDIVMTQSPFSLAVSEGEMVTINCKSSQSLLRSGNQKNYLAWYQQKPGQSPKLLIYYASTGQSGVPDRFIGSGSGTDFTLTISDVQAEDLADYYCLQHWISPPTFGAGTKLELK
